In a protein production outcome set (Wang et al. 2014):

assay: label from the status in PepcDB records
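Note: failed if final PepcDB status was selected cloned or expressed and not failed if soluble or beyond.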

Sequence	protein production
MILKKEYSYESLRKKGAKKKKNFLCLQKYAMIYLVIRRYPYMSFGQKFKHFLAPLDEDDILEVEQDAEEEDAQTISQYEQQRSRMNKLPNDTKMVLFEPRSFDEADEIARRLKENKAAVVNLHKLQREYAQRTIDFLTGVIFALDGSIQKIGHNVILCTPNNVPVQGQITLDSGEDE	failed
MILLCFPGSEQGIGMHQFEFLGQLVLIGALAIVNILVFQKIRIPPVIGLIFTGIMLGPTGFHVIRNSGLISTLAEMGVVLLLFTIGLEFSADDLKKLRKIVLFGGTAQILLTGLVIAMFSYWLMDAIGKSVGSKEALVLGFSFSVSSTALCLKILSDRGELGFDHGKIALGILIFQDMAIVPLMFGFSFLTRGSSMPLESSFEEIALLLLFAIGMFGGFRLLMPKIVRIITELHAGEVLVLGALVLCFGAAWLASLIGLSLALGAFMAGMVIASTDGSHRISRTIDPFREAMTSIFFVSVGLLLDVNMIELPWLIAIALVVLVVKGLIMTGILMALGFSLRVSLMSGMVLAQIGEFSFVLAGTAKDAGLLDQHMFQSMLAVIVVTMIVTPALISAAPKFAAQVAPALGFMPLASKPEPKQPARAAAGPIVCRGEIHAAIIGFGLIGRNIAAVMNATNLNYTVLDTDRKTVKTMRRQGEPLFYGDCTERKSLLRIGVDHSRAVVICIPEIDAAIQCIRLVREINPGAFIIVRSRSLESTNRFYRAGADAAVTELFETSIQMFSELLKHFRVEPETILAQQEIIRREGGNIFRELVTETDGSGDDPAKKSQNGAGFVTSET	failed
MILLIMNTDDFQFFIRVADCGSLSKAAQEANISVSVASQRIQRLESTLKLRLFYRTTRKITLTDEGRKLLDFGRYWLDDFITLKDTLTARDKPLTGNLRVTTSATFGIKILTKVIANFALLHPTLNIYLDLNDQNIDLIEHGMDLAIRIGKLNDSSLVAKPLMTNHRLICAAPSYLNQYGMPHSIEDLQQHRCILQQHQNGLTDHWQLIDQKRTVVDVHLKAYFTTNSGEAIRQAALQGLGISNHSRWHVADDLEQGHLIELLPEYQIEPTTIYAVFPNRQFRQPKTELFLSYLQNYFKHEYPWNIRKN	failed
MILMHPKGLIKRDDIIYLSIFIVVFLIALRNYMISPPYTLGDTTILPSTNPGLYTPSATIQYYLSLLIGENNLIKTLNFLAFIIAPISIYFTLGRKGDFFKRLILPLIFTLNPISISIFYDGNGEGILLVYSLQPLVYYLTYKMLYEVKNRLKYLIYLSIVEVVGQIFFFQMFLFSLFFQLPFILLSIKERKYLFLVYPILADLLGFLSELSWEVYLYIGVVPSVLVSPSNTLVRLGLAYYSTIVSALLFAIVITTAFIYRNKYALATLTSVGILLVIYAILQNFRFDIPVISALLAAITTFQTKVYLLSFGLLDLSLFYLKRTREFIIPLLSLLLIVLLVNTGGLQATTYSIFSFKPQPMPSWYYELYDYLSQNNPNNVYSLATQYQYLQYLPGFSGFIYDTSFIHNLTNPFYGMKYLISTSQMNYTGLRLVKTFGPVLVYYNENFTGLVHYLNGSPVSNYSISDMEIRIYDGNPPFVVSLPYSEYWTSAENYNGFLELTTNISQNSLTSLVHELFFVSLFFLILPFILLILEKTPMKTLIVGR	failed
MILNIVTIVSNFIFIALFYQLFVDLFDWSKMIKMSPQNISKLKVFILLISIVGGYVVSHFLLEVIQLCQSIFWALQ	failed
MILTPLALTPDHDIPGPVLTELTALYASHRAFHALSGDFPDPEDIRPEQVATALADELARPGAEVLLARDAGRLVGVAVTLARHPDPSDPDPWIGLLMVDAGLTRQGHGSRLVSLVEDRFRAAGRTAVRLAVLDGNTDALSFWTALGYRVLDHRRDLGAERPCTVLRRELASDKPRTPRRAARVAVLDPEGAVFLLRYDNVEVGVHWAMPGGGLEADENPREGALREVREETGWTDLEPGPLLCTWEHDFTHLSVGPVRQYEHIYVAQGPRREPTGPHLAAAHAADGILTWRWWSRAELAEAPEPLWPPDLALLLETFGGREG	failed
MILVFLDNMASIKDLNLIDEINDSSNLKLINDRLKLLFWTKNPEITDEENKKKYLDFLNEYWDTLRAYGAGDLELFPDKINYLTLILAANSKNHNIYIKKLAEKYAEKIPIEDGDSKINIWDFIDVAANSRNNDLHLERMILEGDTVLLNQKNQSIYNFEKIRLKLKNYVEKVRNAEMPKEIKDLLVKKSEEAFEGINIGYNIESGIKVSTKEYSGEIPEDWHPPCMREILNDILSGGSPSHYARRSFVVYRFVSQFDPNLRPIEEGIITNRSAQDIATEEQIERFLDEIINIFKSVGDFDVEKTKYYISHNIGYKVANHITHCEYCKNWRDDGGKGLGYYCRPDSTCSRKDIIHPLDYLCHNINRHVKKSELEHHHHHH	failed
MIMARTSNIFARVEPEVKEQAEQVLEQLGIPMSSAVSMFLKQVVLQRGIPFEMKLPKDTPPSYSSLTKEQFNAEIEKGMLDIEAGRTYPMKSVEEEMKRDYGLLEHHHHHH	not failed
MIMASSAAASISMITLRNLSRNHQSHQSTFLGFSRSFHNQRISSNSPGLSTRARSTTSSTGGFFRTICSSSSNDYSRPTKIQELNVYEFNEGDRNSPAVLKLGKKPDQLCLGDLVPFTNKLYTGDLTKRIGITAGLCVLIQHVPEKKGDRFEASYSFYFGDYGHISVQGPYLTYEDTFLAITGGSGVFEGAYGQVKLRQLVYPTKLFYTFYLKGVAADLPVELTGKHVEPSKEVKPAAEAQATQPGATIANFTN	failed
MIMHIPKSTYYHKWFIGATLVVPVLPLAAQTSPNLVFIMADQYRGDALGCLGKEPVKTPCLDHLASEGVLFTNAVSSYPVSSPARAMLMTGMYPLHNKVTGNCNSQTAPYGVELPQEARCWSDVLKDMNYRTGYIGKWHLDSPYKPYVDTYNNRGKVAWNEWCPPERRHGFEYWTAYGTYDYHLKPMYWDTTAPRDSFYYVNQWGPAYEADKAIEYIQTQKENKQPFALVVSMNPPHTGYELVPDKYKALYKDIDVEALCAHRPDIPAKGTEMGNYFRNNIRNYYACITGVDEQVGRIIETLKSNGLFENTIIVFTSDHGICMGAHNNAGKDIFYEEAMRIPMIISWPAKIKPRKDDHLMIAFADLYPSLLSLMGFRKEIPETVQTFDLSRHILGKSKKEVVQPYYYVQFDNHATGYRGLRTSTHTFAVHATNGKIDETVLFDRTKDPYQMDNIAGQSPRLVRQFNKQLKAWLLHTNDSFAHYLETVTKLEHHHHHH	not failed
MIMKISMAMCKQPLPPSPTLDFPPARFGPNMLTLNPYGPKDKVVVIMGATGTGKSRLSVDIATRFRAEIINSDKIQVHQGLDIVTNKITSEESCGVPHHLLGVLPPEADLTAANYCHMANLSIESVLNRGKLPIIVGGSNSYVEALVDDKENKFRSRYDCCFLWVDVALPVLHGFVSERVDKMVESGMVEEVREFFDFSNSDYSRGIKKAIGFPEFDRFFRNEQFLNVEDREELLSKVLEEIKRNTFELACRQREKIERLRKVKKWSIQRVDATPVFTKRRSKMDANVAWERLVAGPSTDTVSRFLLDIASRRPLVEASTAVAAAMERELSRCLVA	failed
MIMSVCLPWLARCRRFLIVSLAFAMLLLGIWGTLPFSLSDHGTAIAALEDDRYDGNIFVVYAGNGSLVPPRLNLRESFERKLPVILVYYLDDSKDCKQYAFIVSRMQEFYGRVASIIPVSVDSIPDQKRFRRDEPGYYYSGGVPQTVILDKSGKKIFDAQGALKFEVVDDVLRDLFDLLPRSESMELKQRTYNEFNSELVD	failed
MINKKTTSENRRILQIAVPSIISNITVPLLGLIDVTIVGHLGSPAYIGAIAVGGMLFNIIYWIFGFLRMGTSGMTSQAYGQHDLNEINRLLIRSVGVGLFIALCLLILQYPILNAAFTLIQTTEEVKQLATTYFYICIWGAPAMLGLYGFAGWFIGMQNSRFPMYIAITQNIVNIIASLSFVYLLDMKVAGVAAGTLIAQYAGFFMAILLYMRYYSTLRKRIVWKDIIQKQAMYRFFRVNRDIFFRTLCLVIVTMFFTSAGAAQGEVVLAVNTLLMQLFTLFSYIMDGFAYAGEALAGRYIGARNQTALRNTVNHLFYWGIGLSAAFTLLYAIGGKEFLGLLTNDVSVISSSDTYFYWALAIPLTGFSAFLWDGVFIGATATRQMLYSMLVASVSFFMIYYAFHNLLGNHALWLAFITYLSLRGIVQTFIGREIVKKAI	failed
MINKTLTVTLTSIAALAGLSGLANAQEYTNSTHTTSQQSNTYNSQVEQETNLGLTNKDIVKVKDGDTLYQIALSHHLSLEQLYNFNPGVTALIHPGDLIAVSEKGAAKLENKEINYAQTYAETTAFNQSDVVAQSVSASTTNVTGYNIVPTSAPTNTMHDSYHSSVNTPVSYQHVTTANQGNRYSFGNCTYYAFDRRQQLGRSIGSYWGNANNWAYSAKNAGLTVDNRPEVGAIFQTTAGYYGHVGVVEHVNQDGSVYVSEMNWNGHYNRVTNRTITNTSSYNFIH	failed
MINKVLLEGQRITRSPQVKQHACGASFFLVVLLLIGGLLYSTISWMWDEQRLPLSKLVLQGDLHYVSALDVQRVLARLDHIGTFMSQDINVLQESVQSIPWVSHASIRKQWPDTIKVYLTEYQVEALWNANALLDKNGTVFYGDIARVNGEYVKLYGPDGTAPQVLKAWRDYNPKFAQLGLNISSLVLNDRRAWQIILDNGIRLELGKESLEERISRFFLLYKQLGNKAEQVSYIDLRYDTGAAVGWFPEQELTQEKNDD	failed
MINMKVAISMDVDKISNSFEDCKYFLIVRIDDNEVKSTKVIFNDESGKKSIVKENVNAIICKNISEENYKKFSKKIEIYHAEGDDVDKNISLFIEGELSKISNP	not failed
MINQATSPAAPISLTTKGLRWANLAFMLYLLLLAVAMVGSGFKWATGDQAKVLFEFASHPIAGLMIGLVATALIQSSSTVTSIIVGLVAGGLPVETAIPMVMGANIGTTVTNTLVSLGHMRCKEEFRRAFASATIHDFFNLLAVLIFLPLEMMFGILEKVSHWLVSPLLATGDMSMKGFDFIKPITKPVITGLETQLSVLGNTFGGVALIVLGIATIFVAITVMGKLMKSLMVGRAREILQNAIGRGPLHGIASGTVVTVLVQSSSTTTSLMVPLVGSGVLKVREIYPFTLGANIGTCITALLAATAVSGEFAVFALQIALVHLSFNLMATVLIYGIPFLRELPIKGAELISTWACKSKMVVVSYLLGVFVVIPGSILALTA	failed
MINSVGVVRKEAENCNCLQVFFVSGSFKVDSVEAKKKEENFRETLRDMANSKYEYVKSFELEDEVMLPNLMVVRIDGRDFSRFSQVHEFEKPNDETALNLMNSCSAAVLEEFPDIIFAYGYSDEYSFVFKKTSRFYQRRASKILSLVASFFAAVYVTKWKEFFPQRKLLYAPSFSSKVVSCASAEVLQAYLAWRQQDCHANNQYDTCFWMLVKSGKSVSETQEILKDTQKQQKNELLFQKFGINYKTLPELFRQGSCLFKKKVEETVKHDENGNPVKRLRRKAVFVHSENIAGRSFWNEQPSLYNDLGHFTKDIGKIEPDFIRSFQFENKLLPLTWVVVRIDGCHFHRFSDVHEFEKPNDEQALKLMNSCAVAVLEEFEDIHFAYGVSDEYSFVLKKESELYKRQSSKIISAVASFFTSTYVLQWGEFFPHKELKYPPSFDGRAVCYPTYNILLDYLAWRQVDCHINNQYNTCFWMLVKSGKNKTQSQDYLKGTQTREKNELLSRQFGIEYNSLPVIFRMGSSVFRLKEAENGVVSGKKLEGEVVVDHCNIIERCFWEEHLHILSYS	failed
MINVLILGAASQISRFLIPDLLADKTVYLTLFARQAPQRLGQYAGESRVTLVDGDWNQEADIEQVMSNQDIVFLASSSLVGNQNVVTVMKHTGVQRLIVAGGLGIDDEVAGKFGNWNTRMMGDYTPYKQAAKVILDSGLNTTYLRMTWLYDENGNEKYQIVPEGQPLRGTQVTRQAVAKLVTAIVRQPSLYQYANIGVVEPGTEWDKPSFYLEHHHHHH	failed
MIPFPESRLAAQMSFVVEIDKLKTILRQTLLTDSSRRENDAEHSWHIATMAFLLAEYADEAVQIGRVARMLLIHDIVEIDAGDTFIHDEAGNEDKEERERKAAARLFGLLPPDQAAEYSALWQEYEARETADARFADALDRLQPLLHNFETEGGTWKPHGVTRAKVDKLLPRIEAGSKRLGAYARALVDEAVRRGYLAP	not failed
